US20070027089A1
Where no end group is shown, it is not given here. [ ]: non-standard residue; d: D form. Ahx = NCCCCCC(=O)O

Target: amyloid precursor protein APP695 in HEK 293-APP cells (human), P05067
Assay: cell-based or functional assay

amyloid precursor protein APP695 in HEK 293-APP cells (human), P05067, sequence (P05067 18-770): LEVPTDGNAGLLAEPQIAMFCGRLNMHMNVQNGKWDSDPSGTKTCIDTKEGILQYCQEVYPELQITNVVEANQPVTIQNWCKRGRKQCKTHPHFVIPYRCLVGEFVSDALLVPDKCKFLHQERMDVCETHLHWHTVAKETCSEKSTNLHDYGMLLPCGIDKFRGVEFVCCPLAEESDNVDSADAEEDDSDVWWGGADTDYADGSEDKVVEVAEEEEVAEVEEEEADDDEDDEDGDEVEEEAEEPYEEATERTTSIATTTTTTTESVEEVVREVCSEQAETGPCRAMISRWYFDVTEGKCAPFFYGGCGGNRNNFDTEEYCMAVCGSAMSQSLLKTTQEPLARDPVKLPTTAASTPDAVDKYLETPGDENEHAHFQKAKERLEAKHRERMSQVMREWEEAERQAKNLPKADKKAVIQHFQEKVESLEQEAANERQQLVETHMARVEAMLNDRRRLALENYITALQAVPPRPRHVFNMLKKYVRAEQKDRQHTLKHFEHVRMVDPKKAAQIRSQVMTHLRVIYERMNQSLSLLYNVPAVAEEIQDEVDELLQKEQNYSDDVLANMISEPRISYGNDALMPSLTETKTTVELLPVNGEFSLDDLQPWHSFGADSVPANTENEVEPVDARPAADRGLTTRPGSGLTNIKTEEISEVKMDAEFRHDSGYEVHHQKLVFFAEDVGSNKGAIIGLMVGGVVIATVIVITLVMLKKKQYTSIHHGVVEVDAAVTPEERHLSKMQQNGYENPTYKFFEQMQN

reduction of Aβ released from HEK293-APP cells (sandwich ELISA) at 6.25 µM peptide: 70%
B1: 6-aminohexanoic acid-c-Sub M ΔN3C1 (NH2-(CH2)5-CO-Cys-Ile-Gln-Ile-His-Phe-NH2) (peptide)
peptide: [Ahx]CIQIHF-NH2
modifications: N-terminus assumed
SMILES: CC[C@H](C)[C@H](NC(=O)[C@H](CCC(N)=O)NC(=O)[C@@H](NC(=O)[C@H](CS)NC(=O)CCCCCN)[C@@H](C)CC)C(=O)N[C@@H](Cc1c[nH]cn1)C(=O)N[C@@H](Cc1ccccc1)C(N)=O
